# Experimental data from US20240279278A1, “NMU RECEPTOR 2 AGONISTS” (Boehringer Ingelheim International GmbH, priority 2023, published 2024).
# Target: T1, human neuromedin U receptor 1 (human, UniProt Q9HB89 24-426)
# T1 sequence (looked up): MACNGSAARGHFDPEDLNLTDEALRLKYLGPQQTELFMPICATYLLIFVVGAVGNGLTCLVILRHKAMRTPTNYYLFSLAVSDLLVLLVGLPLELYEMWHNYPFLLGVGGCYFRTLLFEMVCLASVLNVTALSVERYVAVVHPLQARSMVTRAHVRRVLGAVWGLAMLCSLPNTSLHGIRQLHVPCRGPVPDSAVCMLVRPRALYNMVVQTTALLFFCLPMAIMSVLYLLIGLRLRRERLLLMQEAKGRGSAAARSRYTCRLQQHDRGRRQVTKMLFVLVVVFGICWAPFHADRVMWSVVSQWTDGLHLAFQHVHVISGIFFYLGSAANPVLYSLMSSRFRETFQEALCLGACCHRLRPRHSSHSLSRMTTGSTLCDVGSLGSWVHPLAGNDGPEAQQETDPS
# Assay: cell-based or functional assay
row,EC50 (hNMUR1) buffer [nM],Binder
1,610,EEEEXXXXXXXXXXXXXXXXYFLXKPRG (HELM PEPTIDE1{[O=C(O)CCCCCCCCCCCCCCCCCCC(=O)[*:2]].[gGlu].[gGlu].[gGlu].[gGlu].[Sar].[Sar].[Sar].[Sar].[Sar].[Sar].[Sar].[Sar].[Sar].[Sar].[Sar].[Sar].[Sar].[Sar].[Sar].[O=C(CN1CCN(CCN[*:1])CC1)[*:2]].Y.F.[meL].[Nle].K.P.R.G.[am]}$$$$V2.0; SMILES CCCC[C@H](NC(=O)[C@H](CC(C)C)N(C)C(=O)[C@H](Cc1ccccc1)NC(=O)[C@H](Cc1ccc(O)cc1)NC(=O)CN1CCN(CCNC(=O)CN(C)C(=O)CN(C)C(=O)CN(C)C(=O)CN(C)C(=O)CN(C)C(=O)CN(C)C(=O)CN(C)C(=O)CN(C)C(=O)CN(C)C(=O)CN(C)C(=O)CN(C)C(=O)CN(C)C(=O)CN(C)C(=O)CN(C)C(=O)CN(C)C(=O)CC[C@H](NC(=O)CC[C@H](NC(=O)CC[C@H](NC(=O)CC[C@H](NC(=O)CCCCCCCCCCCCCCCCCCC(=O)O)C(=O)O)C(=O)O)C(=O)O)C(=O)O)CC1)C(=O)N[C@@H](CCCCN)C(=O)N1CCC[C@H]1C(=O)N[C@@H](CCCNC(=N)N)C(=O)NCC(N)=O) [C20DA-gGlu4-Sar15-AEPipAc-Tyr-Phe-NMeLeu-Nle-Lys-Pro-Arg-Gly-NH2]
2,> 1000,EEEXXXXXXXXXXXXXXXXYFLXXGRG (HELM PEPTIDE1{[O=C(O)CCCCCCCCCCCCCCCCCCC(=O)[*:2]].[gGlu].[gGlu].[gGlu].[Sar].[Sar].[Sar].[Sar].[Sar].[Sar].[Sar].[Sar].[Sar].[Sar].[Sar].[Sar].[Sar].[Sar].[Sar].[O=C(CN1CCN(CCN[*:1])CC1)[*:2]].Y.F.[meL].[Nle].[Orn].G.R.G.[am]}$$$$V2.0; SMILES CCCC[C@H](NC(=O)[C@H](CC(C)C)N(C)C(=O)[C@H](Cc1ccccc1)NC(=O)[C@H](Cc1ccc(O)cc1)NC(=O)CN1CCN(CCNC(=O)CN(C)C(=O)CN(C)C(=O)CN(C)C(=O)CN(C)C(=O)CN(C)C(=O)CN(C)C(=O)CN(C)C(=O)CN(C)C(=O)CN(C)C(=O)CN(C)C(=O)CN(C)C(=O)CN(C)C(=O)CN(C)C(=O)CN(C)C(=O)CN(C)C(=O)CC[C@H](NC(=O)CC[C@H](NC(=O)CC[C@H](NC(=O)CCCCCCCCCCCCCCCCCCC(=O)O)C(=O)O)C(=O)O)C(=O)O)CC1)C(=O)N[C@@H](CCCN)C(=O)NCC(=O)N[C@@H](CCCNC(=N)N)C(=O)NCC(N)=O) [C20DA-gGlu3-Sar15-AEPipAc-Tyr-Phe-NMeLeu-Nle-Orn-Gly-Arg-Gly-NH2]
3,440,EEEEXXXXXXXXXXXXXXXXYFLXXPRG (HELM PEPTIDE1{[O=C(O)CCCCCCCCCCCCCCCCCCC(=O)[*:2]].[gGlu].[gGlu].[gGlu].[gGlu].[Sar].[Sar].[Sar].[Sar].[Sar].[Sar].[Sar].[Sar].[Sar].[Sar].[Sar].[Sar].[Sar].[Sar].[Sar].[O=C(CN1CCN(CCN[*:1])CC1)[*:2]].Y.F.[meL].[Nle].[Orn].P.R.G.[am]}$$$$V2.0; SMILES CCCC[C@H](NC(=O)[C@H](CC(C)C)N(C)C(=O)[C@H](Cc1ccccc1)NC(=O)[C@H](Cc1ccc(O)cc1)NC(=O)CN1CCN(CCNC(=O)CN(C)C(=O)CN(C)C(=O)CN(C)C(=O)CN(C)C(=O)CN(C)C(=O)CN(C)C(=O)CN(C)C(=O)CN(C)C(=O)CN(C)C(=O)CN(C)C(=O)CN(C)C(=O)CN(C)C(=O)CN(C)C(=O)CN(C)C(=O)CN(C)C(=O)CC[C@H](NC(=O)CC[C@H](NC(=O)CC[C@H](NC(=O)CC[C@H](NC(=O)CCCCCCCCCCCCCCCCCCC(=O)O)C(=O)O)C(=O)O)C(=O)O)C(=O)O)CC1)C(=O)N[C@@H](CCCN)C(=O)N1CCC[C@H]1C(=O)N[C@@H](CCCNC(=N)N)C(=O)NCC(N)=O) [C20DA-gGlu4-Sar15-AEPipAc-Tyr-Phe-NMeLeu-Nle-Orn-Pro-Arg-Gly-NH2]
4,1400,EEEEXXXXXXXXXXXXXYFLXKARG (HELM PEPTIDE1{[O=C(O)CCCCCCCCCCCCCCCCCCC(=O)[*:2]].[gGlu].[gGlu].[gGlu].[gGlu].[Sar].[Sar].[Sar].[Sar].[Sar].[Sar].[Sar].[Sar].[Sar].[Sar].[Sar].[Sar].[O=C(CN1CCN(CCN[*:1])CC1)[*:2]].Y.F.[meL].[Nle].K.[meA].R.G.[am]}$$$$V2.0; SMILES CCCC[C@H](NC(=O)[C@H](CC(C)C)N(C)C(=O)[C@H](Cc1ccccc1)NC(=O)[C@H](Cc1ccc(O)cc1)NC(=O)CN1CCN(CCNC(=O)CN(C)C(=O)CN(C)C(=O)CN(C)C(=O)CN(C)C(=O)CN(C)C(=O)CN(C)C(=O)CN(C)C(=O)CN(C)C(=O)CN(C)C(=O)CN(C)C(=O)CN(C)C(=O)CN(C)C(=O)CC[C@H](NC(=O)CC[C@H](NC(=O)CC[C@H](NC(=O)CC[C@H](NC(=O)CCCCCCCCCCCCCCCCCCC(=O)O)C(=O)O)C(=O)O)C(=O)O)C(=O)O)CC1)C(=O)N[C@@H](CCCCN)C(=O)N(C)[C@@H](C)C(=O)N[C@@H](CCCNC(=N)N)C(=O)NCC(N)=O) [C20DA-gGlu4-Sar12-AEPipAc-Tyr-Phe-NMeLeu-Nle-Lys-NMeAla-Arg-Gly-NH2]
5,1200,EEEEXXXXXXXXXXXXXYFLXKPRG (HELM PEPTIDE1{[O=C(O)CCCCCCCCCCCCCCCCCCC(=O)[*:2]].[gGlu].[gGlu].[gGlu].[gGlu].[Sar].[Sar].[Sar].[Sar].[Sar].[Sar].[Sar].[Sar].[Sar].[Sar].[Sar].[Sar].[O=C(CN1CCN(CCN[*:1])CC1)[*:2]].Y.F.[meL].[Nle].K.P.R.G.[am]}$$$$V2.0; SMILES CCCC[C@H](NC(=O)[C@H](CC(C)C)N(C)C(=O)[C@H](Cc1ccccc1)NC(=O)[C@H](Cc1ccc(O)cc1)NC(=O)CN1CCN(CCNC(=O)CN(C)C(=O)CN(C)C(=O)CN(C)C(=O)CN(C)C(=O)CN(C)C(=O)CN(C)C(=O)CN(C)C(=O)CN(C)C(=O)CN(C)C(=O)CN(C)C(=O)CN(C)C(=O)CN(C)C(=O)CC[C@H](NC(=O)CC[C@H](NC(=O)CC[C@H](NC(=O)CC[C@H](NC(=O)CCCCCCCCCCCCCCCCCCC(=O)O)C(=O)O)C(=O)O)C(=O)O)C(=O)O)CC1)C(=O)N[C@@H](CCCCN)C(=O)N1CCC[C@H]1C(=O)N[C@@H](CCCNC(=N)N)C(=O)NCC(N)=O) [C20DA-gGlu4-Sar12-AEPipAc-Tyr-Phe-NMeLeu-Nle-Lys-Pro-Arg-Gly-NH2]
6,> 1000,EEEEXXXXXXXXXXXXXYFLXXARG (HELM PEPTIDE1{[O=C(O)CCCCCCCCCCCCCCCCCCC(=O)[*:2]].[gGlu].[gGlu].[gGlu].[gGlu].[Sar].[Sar].[Sar].[Sar].[Sar].[Sar].[Sar].[Sar].[Sar].[Sar].[Sar].[Sar].[O=C(CN1CCN(CCN[*:1])CC1)[*:2]].Y.F.[meL].[Nle].[Dab].[meA].R.G.[am]}$$$$V2.0; SMILES CCCC[C@H](NC(=O)[C@H](CC(C)C)N(C)C(=O)[C@H](Cc1ccccc1)NC(=O)[C@H](Cc1ccc(O)cc1)NC(=O)CN1CCN(CCNC(=O)CN(C)C(=O)CN(C)C(=O)CN(C)C(=O)CN(C)C(=O)CN(C)C(=O)CN(C)C(=O)CN(C)C(=O)CN(C)C(=O)CN(C)C(=O)CN(C)C(=O)CN(C)C(=O)CN(C)C(=O)CC[C@H](NC(=O)CC[C@H](NC(=O)CC[C@H](NC(=O)CC[C@H](NC(=O)CCCCCCCCCCCCCCCCCCC(=O)O)C(=O)O)C(=O)O)C(=O)O)C(=O)O)CC1)C(=O)N[C@@H](CCN)C(=O)N(C)[C@@H](C)C(=O)N[C@@H](CCCNC(=N)N)C(=O)NCC(N)=O) [C20DA-gGlu4-Sar12-AEPipAc-Tyr-Phe-NMeLeu-Nle-Dbu-NMeAla-Arg-Gly-NH2]
7,> 1000,EEEEXXXXXXXXXXXXXXXXYFLXKARG (HELM PEPTIDE1{[O=C(O)CCCCCCCCCCCCCCCCCCC(=O)[*:2]].[gGlu].[gGlu].[gGlu].[gGlu].[Sar].[Sar].[Sar].[Sar].[Sar].[Sar].[Sar].[Sar].[Sar].[Sar].[Sar].[Sar].[Sar].[Sar].[Sar].[O=C(CN1CCN(CCN[*:1])CC1)[*:2]].Y.F.[meL].[Nle].K.[meA].R.G.[am]}$$$$V2.0; SMILES CCCC[C@H](NC(=O)[C@H](CC(C)C)N(C)C(=O)[C@H](Cc1ccccc1)NC(=O)[C@H](Cc1ccc(O)cc1)NC(=O)CN1CCN(CCNC(=O)CN(C)C(=O)CN(C)C(=O)CN(C)C(=O)CN(C)C(=O)CN(C)C(=O)CN(C)C(=O)CN(C)C(=O)CN(C)C(=O)CN(C)C(=O)CN(C)C(=O)CN(C)C(=O)CN(C)C(=O)CN(C)C(=O)CN(C)C(=O)CN(C)C(=O)CC[C@H](NC(=O)CC[C@H](NC(=O)CC[C@H](NC(=O)CC[C@H](NC(=O)CCCCCCCCCCCCCCCCCCC(=O)O)C(=O)O)C(=O)O)C(=O)O)C(=O)O)CC1)C(=O)N[C@@H](CCCCN)C(=O)N(C)[C@@H](C)C(=O)N[C@@H](CCCNC(=N)N)C(=O)NCC(N)=O) [C20DA-gGlu4-Sar15-AEPipAc-Tyr-Phe-NMeLeu-Nle-Lys-NMeAla-Arg-Gly-NH2]
8,> 1000,EEEXXXXXXXXXXXXXXXXYFLXXXRG (HELM PEPTIDE1{[O=C(O)CCCCCCCCCCCCCCCCCCC(=O)[*:2]].[gGlu].[gGlu].[gGlu].[Sar].[Sar].[Sar].[Sar].[Sar].[Sar].[Sar].[Sar].[Sar].[Sar].[Sar].[Sar].[Sar].[Sar].[Sar].[O=C(CN1CCN(CCN[*:1])CC1)[*:2]].Y.F.[meL].[Nle].[Orn].[bAla].R.G.[am]}$$$$V2.0; SMILES CCCC[C@H](NC(=O)[C@H](CC(C)C)N(C)C(=O)[C@H](Cc1ccccc1)NC(=O)[C@H](Cc1ccc(O)cc1)NC(=O)CN1CCN(CCNC(=O)CN(C)C(=O)CN(C)C(=O)CN(C)C(=O)CN(C)C(=O)CN(C)C(=O)CN(C)C(=O)CN(C)C(=O)CN(C)C(=O)CN(C)C(=O)CN(C)C(=O)CN(C)C(=O)CN(C)C(=O)CN(C)C(=O)CN(C)C(=O)CN(C)C(=O)CC[C@H](NC(=O)CC[C@H](NC(=O)CC[C@H](NC(=O)CCCCCCCCCCCCCCCCCCC(=O)O)C(=O)O)C(=O)O)C(=O)O)CC1)C(=O)N[C@@H](CCCN)C(=O)NCCC(=O)N[C@@H](CCCNC(=N)N)C(=O)NCC(N)=O) [C20DA-gGlu3-Sar15-AEPipAc-Tyr-Phe-NMeLeu-Nle-Orn-bAla-Arg-Gly-NH2]
